IntAct's records for PubMed 29892012

B1: Genetic suppressor element 1 (Homo sapiens), Q14687 (parent)
chain: MKGMSHEPKSPSLGMLSTATRTTATVNPLTPSPLNGALVPSGSPATSSALSAQAAPSSSFAAALRKLAKQAEEPRGSSLSSESSPVSSPATNHSSPASTPKRVPMGPIIVPPGGHSVPSTPPVVTIAPTKTVNGVWRSESRQDAGSRSSSGGRERLIVEPPLPQEKAGGPAIPSHLLSTPYPFGLSPSSVVQDSRFPPLNLQRPVHHVVPPSTVTEDYLRSFRPYHTTDDLRMSSLPPLGLDPATAAAYYHPSYLAPHPFPHPAFRMDDSYCLSALRSPFYPIPTPGSLPPLHPSAMHLHLSGVRYPPELSHSSLAALHSERMSGLSAERLQMDEELRREREREREREREREADREREKEREREREKEREQEKEREREKERERELERQREQRAREKELLAAKALEPSFLPVAELHGLRGHATEERGKPSEQLTPTRAEKLKDAGLQAPKPVQHPLHPVPTPHHTVPSLISNHGIFSLPSSSAATALLIQRTNEEEKWLARQRRLRQEKEDRQSQVSEFRQQVLEQHLDMGRPPVPAEAEHRPESTTRPGPNRHEPGGRDPPQHFGGPPPLISPKPQLHAAPTALWNPVSLMDNTLETRRAESHSLHSHPAAFEPSRQAAVPLVKVERVFCPEKAEEGPRKREPAPLDKYQPPPPPPREGGSLEHQPFLPGPGPFLAELEKSTQTILGQQRASLPQAATFGELSGPLKPGSPYRPPVPRAPDPAYIYDEFLQQRRRLVSKLDLEERRRREAQEKGYYYDLDDSYDESDEEEVRAHLRCVAEQPPLKLDTSSEKLEFLQLFGLTTQQQKEELVAQKRRKRRRMLRERSPSPPTIQSKRQTPSPRLALSTRYSPDEMNNSPNFEEKKKFLTIFNLTHISAEKRKDKERLVEMLRAMKQKALSAAVADSLTNSPRDSPAVSLSEPATQQASLDVEKPVGVAASLSDIPKAAEPGKLEQVRPQELSRVQELAPASGEKARLSEAPGGKKSLSMLHYIRGAAPKDIPVPLSHSTNGKSKPWEPFVAEEFAHQFHESVLQSTQKALQKHKGSVAVLSAEQNHKVDTSVHYNIPELQSSSRAPPPQHNGQQEPPTARKGPPTQELDRDSEEEEEEDDEDGEDEEEVPKRKWQGIEAVFEAYQEHIEEQNLERQVLQTQCRRLEARHYSLSLTAEQLSHSVAELRSQKQKMVSERERLQAELDHLRKCLALPAMHWPRGYLKGYPR
partner: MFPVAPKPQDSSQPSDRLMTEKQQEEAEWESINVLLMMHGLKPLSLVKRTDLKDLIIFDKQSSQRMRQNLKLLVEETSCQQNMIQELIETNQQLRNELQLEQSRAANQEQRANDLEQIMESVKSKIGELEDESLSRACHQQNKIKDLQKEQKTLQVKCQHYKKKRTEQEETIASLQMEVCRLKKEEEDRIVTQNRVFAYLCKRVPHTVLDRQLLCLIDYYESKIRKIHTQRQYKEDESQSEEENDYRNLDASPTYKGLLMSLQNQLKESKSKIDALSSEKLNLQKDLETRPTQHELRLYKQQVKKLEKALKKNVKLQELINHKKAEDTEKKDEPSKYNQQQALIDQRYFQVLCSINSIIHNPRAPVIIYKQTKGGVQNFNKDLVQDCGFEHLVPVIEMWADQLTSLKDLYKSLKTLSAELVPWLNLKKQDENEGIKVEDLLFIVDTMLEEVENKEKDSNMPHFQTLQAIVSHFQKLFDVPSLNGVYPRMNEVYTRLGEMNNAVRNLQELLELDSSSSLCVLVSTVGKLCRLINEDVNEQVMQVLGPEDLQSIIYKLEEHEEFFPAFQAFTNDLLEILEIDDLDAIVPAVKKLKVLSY
B2: Protein VAC14 homolog (Homo sapiens), Q08AM6 (parent)
chain: MNPEKDFAPLTPNIVRALNDKLYEKRKVAALEIEKLVREFVAQNNTVQIKHVIQTLSQEFALSQHPHSRKGGLIGLAACSIALGKDSGLYLKELIEPVLTCFNDADSRLRYYACEALYNIVKVARGAVLPHFNVLFDGLSKLAADPDPNVKSGSELLDRLLKDIVTESNKFDLVSFIPLLRERIYSNNQYARQFIISWILVLESVPDINLLDYLPEILDGLFQILGDNGKEIRKMCEVVLGEFLKEIKKNPSSVKFAEMANILVIHCQTTDDLIQLTAMCWMREFIQLAGRVMLPYSSGILTAVLPCLAYDDRKKSIKEVANVCNQSLMKLVTPEDDELDELRPGQRQAEPTPDDALPKQEGTASGGPDGSCDSSFSSGISVFTAASTERAPVTLHLDGIVQVLNCHLSDTAIGMMTRIAVLKWLYHLYIKTPRKMFRHTDSLFPILLQTLSDESDEVILKDLEVLAEIASSPAGQTDDPGPLDGPDLQASHSELQVPTPGRAGLLNTSGTKGLECSPSTPTMNSYFYKFMINLLKRFSSERKLLEVRGPFIIRQLCLLLNAENIFHSMADILLREEDLKFASTMVHALNTILLTSTELFQLRNQLKDLKTLESQNLFCCLYRSWCHNPVTTVSLCFLTQNYRHAYDLIQKFGDLEVTVDFLAEVDKLVQLIECPIFTYLRLQLLDVKNNPYLIKALYGLLMLLPQSSAFQLLSHRLQCVPNPELLQTEDSLKAAPKSQKADSPSIDYAELLQHFEKVQNKHLEVRHQRSGRGDHLDRRVVL
partner: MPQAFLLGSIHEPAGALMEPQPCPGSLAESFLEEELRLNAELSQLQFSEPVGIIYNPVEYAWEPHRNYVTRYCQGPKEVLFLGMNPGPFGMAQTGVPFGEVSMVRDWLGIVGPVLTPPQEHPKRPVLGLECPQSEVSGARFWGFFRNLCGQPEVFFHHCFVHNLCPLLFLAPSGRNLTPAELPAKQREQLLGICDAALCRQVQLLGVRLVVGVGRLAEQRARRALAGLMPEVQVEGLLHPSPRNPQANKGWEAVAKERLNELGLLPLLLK
B3: Keratin, type I cuticular Ha8 (Homo sapiens), O76015 (parent)
chain: MTSSYSSSSCPLGCTMAPGARNVSVSPIDIGCQPGAEANIAPMCLLANVAHANRVRVGSTPLGRPSLCLPPTCHTACPLPGTCHIPGNIGICGAYGENTLNGHEKETMQFLNDRLANYLEKVRQLEQENAELEATLLERSKCHESTVCPDYQSYFHTIEELQQKILCSKAENARLIVQIDNAKLAADDFRIKLESERSLRQLVEADKCGTQKLLDDATLAKADLEAQQESLKEEQLSLKSNHEQEVKILRSQLGEKLRIELDIEPTIDLNRVLGEMRAQYEAMLETNRQDVEQWFQAQSEGISLQDMSCSEELQCCQSEILELRCTVNALEVERQAQHTLKDCLQNSLCEAEDRFGTELAQMQSLISNVEEQLSEIRADLERQNQEYQVLLDVKTRLENEIATYRNLLESEDCKLPCNPCSTSPSCVTAPCAPRPSCGPCTTCGPTCGASTTGSRF
partner: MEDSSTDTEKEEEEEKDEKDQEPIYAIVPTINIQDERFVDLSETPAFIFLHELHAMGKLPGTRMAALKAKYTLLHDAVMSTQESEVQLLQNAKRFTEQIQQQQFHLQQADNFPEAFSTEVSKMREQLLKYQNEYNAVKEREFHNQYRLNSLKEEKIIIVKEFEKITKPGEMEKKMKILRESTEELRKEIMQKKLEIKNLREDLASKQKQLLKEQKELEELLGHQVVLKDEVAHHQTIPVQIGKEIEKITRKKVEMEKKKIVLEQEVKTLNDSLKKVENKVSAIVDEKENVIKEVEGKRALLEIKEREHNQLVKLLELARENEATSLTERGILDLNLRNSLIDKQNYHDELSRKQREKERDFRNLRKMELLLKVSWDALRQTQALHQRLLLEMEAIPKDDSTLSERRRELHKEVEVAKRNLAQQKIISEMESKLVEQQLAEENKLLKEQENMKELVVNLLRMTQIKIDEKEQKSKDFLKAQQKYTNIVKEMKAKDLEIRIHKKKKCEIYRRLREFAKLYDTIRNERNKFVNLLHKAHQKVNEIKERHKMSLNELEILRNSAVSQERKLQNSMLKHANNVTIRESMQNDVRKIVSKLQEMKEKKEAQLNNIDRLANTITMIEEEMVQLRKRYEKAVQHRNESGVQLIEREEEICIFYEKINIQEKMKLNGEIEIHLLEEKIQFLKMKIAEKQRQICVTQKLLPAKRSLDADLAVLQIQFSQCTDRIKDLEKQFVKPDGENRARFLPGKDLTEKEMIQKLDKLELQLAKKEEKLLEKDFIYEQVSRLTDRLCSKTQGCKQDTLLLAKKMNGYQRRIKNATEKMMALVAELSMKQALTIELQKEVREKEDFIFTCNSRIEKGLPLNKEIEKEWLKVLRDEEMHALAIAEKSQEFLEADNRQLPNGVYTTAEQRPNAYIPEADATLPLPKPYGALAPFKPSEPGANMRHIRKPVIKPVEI

Variants of: B1
Settings: with cep70_human CEP70, Q8NHQ1

| effect of a mutation on the interaction | Variant |
| --- | --- |
| with no effect | R503Q |

Variants of: B1
Settings: with cep70_human CEP70, Q8NHQ1
Remark: another data set of the same source

| effect of a mutation on the interaction | Variant |
| --- | --- |
| with no effect | E368K |

Variants of: B2
Settings: with smug1_human SMUG1, Q53HV7

| effect of a mutation on the interaction | Variant |
| --- | --- |
| with no effect | A127S |

Variants of: B3
Settings: with cc146_human CCDC146, Q8IYE0

| effect of a mutation on the interaction | Variant |
| --- | --- |
| with no effect | D306A |

Variants of: B3
Settings: with cc146_human CCDC146, Q8IYE0
Remark: another data set of the same source

| effect of a mutation on the interaction | Variant |
| --- | --- |
| with no effect | N270K |
